{"source": "the supplement of paper PMC10567573", "parents": {"B1": {"name": "RHOBTB1 (parent)", "chain": "TFGDHHKDRRFAYGRSDVVVLCFS"}}}
{"variants_of": "B1", "assay": "protein stability index of a GFP-peptide fusion (GPS, HEK-293T) (PSI 1-6); higher = more stable", "settings": "c terminus: a fixed tail appended"}
{"variant": "TFGDHHKDRRFIYGRSDVVVLCFS", "protein stability index": 3.53}
{"variant": "TFGDHHKDRRFKYGRSDVVVLCFS", "protein stability index": 1.46}
{"variant": "TFGDHHKDRRFLYGRSDVVVLCFS", "protein stability index": 2.48}
{"variant": "TFGDHHKDRRFQYGRSDVVVLCFS", "protein stability index": 2.33}
{"variant": "TFGDHHKDRRFRYGRSDVVVLCFS", "protein stability index": 2.98}
{"variant": "TFGDHHKDRRFTYGRSDVVVLCFS", "protein stability index": 2.65}
{"variant": "TFGDHHKDRRFVYGRSDVVVLCFS", "protein stability index": 1.95}
{"variant": "TFGDHHKDRRFYYGRSDVVVLCFS", "protein stability index": 1.9}
{"variant": "TFGDHHKDRRFAAGRSDVVVLCFS", "protein stability index": 1.36}
{"variant": "TFGDHHKDRRFACGRSDVVVLCFS", "protein stability index": 2.38}
{"variant": "TFGDHHKDRRFADGRSDVVVLCFS", "protein stability index": 2.16}
{"variant": "TFGDHHKDRRFAEGRSDVVVLCFS", "protein stability index": 1.93}
{"variant": "TFGDHHKDRRFAGGRSDVVVLCFS", "protein stability index": 1.46}
{"variant": "TFGDHHKDRRFAHGRSDVVVLCFS", "protein stability index": 2.49}
{"variant": "TFGDHHKDRRFAIGRSDVVVLCFS", "protein stability index": 3.14}
{"variant": "TFGDHHKDRRFAKGRSDVVVLCFS", "protein stability index": 2.4}
{"variant": "TFGDHHKDRRFAMGRSDVVVLCFS", "protein stability index": 1.55}
{"variant": "TFGDHHKDRRFANGRSDVVVLCFS", "protein stability index": 2.36}
{"variant": "TFGDHHKDRRFAPGRSDVVVLCFS", "protein stability index": 1.04}
{"variant": "TFGDHHKDRRFAQGRSDVVVLCFS", "protein stability index": 2.78}
{"variant": "TFGDHHKDRRFARGRSDVVVLCFS", "protein stability index": 1.33}
{"variant": "TFGDHHKDRRFASGRSDVVVLCFS", "protein stability index": 2.66}
{"variant": "TFGDHHKDRRFATGRSDVVVLCFS", "protein stability index": 1.62}
{"variant": "TFGDHHKDRRFAYDRSDVVVLCFS", "protein stability index": 2.49}
{"variant": "TFGDHHKDRRFAYERSDVVVLCFS", "protein stability index": 1.99}
{"variant": "TFGDHHKDRRFAYFRSDVVVLCFS", "protein stability index": 3.41}
{"variant": "TFGDHHKDRRFAYHRSDVVVLCFS", "protein stability index": 1.85}
{"variant": "TFGDHHKDRRFAYIRSDVVVLCFS", "protein stability index": 2.49}
{"variant": "TFGDHHKDRRFAYKRSDVVVLCFS", "protein stability index": 2.61}
{"variant": "TFGDHHKDRRFAYNRSDVVVLCFS", "protein stability index": 2.25}
{"variant": "TFGDHHKDRRFAYPRSDVVVLCFS", "protein stability index": 3.26}
{"variant": "TFGDHHKDRRFAYQRSDVVVLCFS", "protein stability index": 3.11}
{"variant": "TFGDHHKDRRFAYRRSDVVVLCFS", "protein stability index": 2.76}
{"variant": "TFGDHHKDRRFAYSRSDVVVLCFS", "protein stability index": 1.75}
{"variant": "TFGDHHKDRRFAYTRSDVVVLCFS", "protein stability index": 3.19}
{"variant": "TFGDHHKDRRFAYVRSDVVVLCFS", "protein stability index": 3.71}
{"variant": "TFGDHHKDRRFAYGASDVVVLCFS", "protein stability index": 2.04}
{"variant": "TFGDHHKDRRFAYGDSDVVVLCFS", "protein stability index": 2.36}
{"variant": "TFGDHHKDRRFAYGESDVVVLCFS", "protein stability index": 1.75}
{"variant": "TFGDHHKDRRFAYGISDVVVLCFS", "protein stability index": 2.55}
{"variant": "TFGDHHKDRRFAYGKSDVVVLCFS", "protein stability index": 2.27}
{"variant": "TFGDHHKDRRFAYGLSDVVVLCFS", "protein stability index": 2.23}
{"variant": "TFGDHHKDRRFAYGNSDVVVLCFS", "protein stability index": 1.84}
{"variant": "TFGDHHKDRRFAYGPSDVVVLCFS", "protein stability index": 1.48}
{"variant": "TFGDHHKDRRFAYGQSDVVVLCFS", "protein stability index": 2.66}
{"variant": "TFGDHHKDRRFAYGSSDVVVLCFS", "protein stability index": 2.34}
{"variant": "TFGDHHKDRRFAYGTSDVVVLCFS", "protein stability index": 2.11}
